Data: FireProtDB

B1: Ribonuclease HI, P0A7Y4 (parent)
chain: MLKQVEIFTDGSCLGNPGPGGYGAILRYRGREKTFSAGYTRTTNNRMELMAAIVALEALKEHCEVILSTDSQYVRQGITQWIHNWKKRGWKTADKKPVKNVDLWQRLDAALGQHQIKWEWVKGHAGHPENERCDELARAAAMNPTLEDTGYQVEV

Variants of: B1
Details: Escherichia coli (strain K12); pH 3; 49.8 °C; Thermal; CD; glycine-HCl 10 mM; reversible: yes; structure 2RN2; whole UniProt chain shown

| Variant | ddG of mutation (higher = less stable) |
| --- | --- |
| Y28F R29H G30A R31H | 2.93 kJ/mol |
| H62P | -4.18 kJ/mol |
| G77A | 3.77 kJ/mol |
| K91R D94E | 2.51 kJ/mol |
| K91R D94E K95G | -5.02 kJ/mol |
| K91R K95G | -6.69 kJ/mol |
| D94R K95G | -4.6 kJ/mol |

Same assay, conditions: Escherichia coli (strain K12); pH 3; Thermal; CD; glycine-HCl 10 mM; reversible: yes; structure 2RN2; whole UniProt chain shown

| Variant | Tm | change of melting temperature, mutant - wild type (higher = more stable) | unfolding enthalpy (van 't Hoff) |
| --- | --- | --- | --- |
| Y28F R29H G30A R31H | 47.5 °C | -2.3 °C | 387 kJ/mol |
| H62P | 53.2 °C | 3.4 °C | 458 kJ/mol |
| G77A | 46.9 °C | -2.9 °C | – |
| K91R D94E | 47.8 °C | -2 °C | 392 kJ/mol |
| K91R D94E K95G | 53.8 °C | 4 °C | 438 kJ/mol |
| K91R K95G | 55 °C | 5.2 °C | 477 kJ/mol |
| D94R K95G | 53.4 °C | 3.6 °C | 530 kJ/mol |

Same assay, conditions: Escherichia coli (strain K12); pH 5.5; 52 °C; Thermal; CD; glycine-HCl 10 mM; reversible: yes; structure 2RN2; whole UniProt chain shown

| Variant | ddG of mutation (higher = less stable) |
| --- | --- |
| Y28F R29H G30A R31H | 3.77 kJ/mol |
| K91R D94E K95G | -6.28 kJ/mol |

Same assay, conditions: Escherichia coli (strain K12); pH 5.5; Thermal; CD; glycine-HCl 10 mM; reversible: yes; structure 2RN2; whole UniProt chain shown

| Variant | Tm | change of melting temperature, mutant - wild type (higher = more stable) | unfolding enthalpy (van 't Hoff) |
| --- | --- | --- | --- |
| Y28F R29H G30A R31H | 48.8 °C | -3.2 °C | 337 kJ/mol |
| K91R D94E | 50.2 °C | -1.8 °C | 366 kJ/mol |
| K91R D94E K95G | 57.6 °C | 5.6 °C | 363 kJ/mol |
| K91R K95G | 57.8 °C | 5.8 °C | 385 kJ/mol |
| D94R K95G | 57.5 °C | 5.5 °C | 428 kJ/mol |

Same assay, conditions: Escherichia coli (strain K12); pH 3; 50.1 °C; Thermal; CD; glycine-HCl 10 mM; NaCl 0.1 M; reversible: yes; structure 2RN2; whole UniProt chain shown

| Variant | ddG of mutation (higher = less stable) |
| --- | --- |
| H62P | -4.18 kJ/mol |

Same assay, conditions: Escherichia coli (strain K12); pH 3; Thermal; CD; glycine-HCl 10 mM; NaCl 0.1 M; reversible: yes; structure 2RN2; whole UniProt chain shown

| Variant | Tm | change of melting temperature, mutant - wild type (higher = more stable) | unfolding enthalpy (van 't Hoff) |
| --- | --- | --- | --- |
| H62P | 53.5 °C | 3.4 °C | 458 kJ/mol |

Same assay, conditions: Escherichia coli (strain K12); pH 5.5; 25 °C; GdnHCl; CD; Sodium acetate 20 mM; reversible: yes; structure 2RN2; whole UniProt chain shown

| Variant | ddG of mutation (higher = less stable) | denaturant m value | denaturant midpoint (higher = more stable) | unfolding free energy |
| --- | --- | --- | --- | --- |
| H62P | -3.1 kJ/mol | 4.98 kcal/mol/M | 1.98 M | 41.4 kJ/mol |

Same assay, conditions: Escherichia coli (strain K12); pH 5.5; 52 °C; Thermal; CD; Sodium acetate 20 mM; reversible: yes; structure 2RN2; whole UniProt chain shown

| Variant | ddG of mutation (higher = less stable) |
| --- | --- |
| H62P | -4.6 kJ/mol |

Same assay, conditions: Escherichia coli (strain K12); pH 5.5; 52.7 °C; Thermal; CD; Sodium acetate 20 mM; NaCl 0.1 M; reversible: yes; structure 2RN2; whole UniProt chain shown

| Variant | ddG of mutation (higher = less stable) |
| --- | --- |
| H62P | -4.6 kJ/mol |

Same assay, conditions: Escherichia coli (strain K12); pH 5.5; Thermal; CD; Sodium acetate 20 mM; NaCl 0.1 M; reversible: yes; structure 2RN2; whole UniProt chain shown

| Variant | Tm | change of melting temperature, mutant - wild type (higher = more stable) | unfolding enthalpy (van 't Hoff) |
| --- | --- | --- | --- |
| H62P | 56.8 °C | 4.1 °C | 427 kJ/mol |

Same assay, conditions: Escherichia coli (strain K12); pH 5.5; Thermal; CD; Sodium acetate 20 mM; reversible: yes; structure 2RN2; whole UniProt chain shown

| Variant | Tm | change of melting temperature, mutant - wild type (higher = more stable) | unfolding enthalpy (van 't Hoff) |
| --- | --- | --- | --- |
| H62P | 56.1 °C | 4.1 °C | 427 kJ/mol |

Same assay, conditions: Escherichia coli (strain K12); pH 5.5; 25 °C; GdnHCl; CD; glycine-HCl 10 mM; reversible: yes; structure 2RN2; whole UniProt chain shown

| Variant | ddG of mutation (higher = less stable) | denaturant m value | denaturant midpoint (higher = more stable) | unfolding free energy |
| --- | --- | --- | --- | --- |
| K91R D94E K95G | 0.0418 kJ/mol | 4.36 kcal/mol/M | 2.1 M | 38.2 kJ/mol |

Same assay, conditions: Escherichia coli (strain K12); pH 5.5; 49.8 °C; Thermal; CD; glycine-HCl 10 mM; reversible: yes; structure 2RN2; whole UniProt chain shown

| Variant | ddG of mutation (higher = less stable) |
| --- | --- |
| D94R K95G | -6.28 kJ/mol |
